Positions count from the first letter of the chain named. Values belong to the binder of their own block, whether it stands above or below them.
Molecular target: T1, soluble human FcγRIIb (human, UniProt P31994 43-217, limits assumed)
T1 construct: soluble His-tagged form; also called hFcγRIIb
T1 sequence (looked up): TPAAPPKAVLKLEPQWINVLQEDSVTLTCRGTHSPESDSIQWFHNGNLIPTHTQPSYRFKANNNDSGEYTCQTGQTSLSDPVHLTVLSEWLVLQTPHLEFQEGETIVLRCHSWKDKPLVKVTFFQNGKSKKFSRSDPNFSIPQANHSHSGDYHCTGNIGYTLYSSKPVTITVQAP
Test: SPR, Ab-IgE complex over captured hFcγRIIb, pH 7.4, 25C
Method: Fc region variant-containing antibody binding assays between soluble human FcγRIIb (a.k.a. “hFcγRIIb”) and antigen-antibody complexes were performed using BIACORE® T200 (GE Healthcare). Soluble hFcγRIIb was produced in the form of a His-tagged molecule using methods known in the art. An appropriate amount of an anti-His antibody was fixed onto Sensor chip CM5 (GE Healthcare) by the amine coupling method using a His capture kit (GE Healthcare) to capture hFcγRIIb. Next, an antibody-antigen complex and a running buffer (as a reference solution) was injected, and interaction was allowed to take place with the hFcγRIIb captured onto the sensor chip. 20 mM N-(2-Acetamido)-2-aminoethanesulfonic acid, 150 mM NaCl, 1.2 mM CaCl₂, and 0.05% (w/v) Tween 20 at pH 7.4 was used as the running buffer, and the respective buffer was also used to dilute the soluble hFcγRIIb. To regenerate the sensor chip, 10 mM glycine-HCl at pH 1.5 was used. All measurements were carried out at 25° C. Analyses were performed based on binding (RU) calculated from sensorgrains obtained by the measurements, and relative values when the binding amount of P600 was defined as 1.00 are shown. To calculate the parameters, the BIACORE® T100 Evaluation Software (GE Healthcare) was used.

B1: Ab1H-P929/Ab1L (antibody, human IgG1, kappa, name in EU numbering)
heavy: QVQLVESGGGLVQPGGSLRLSCAASGFTLSNHDMTWVRQAPGKGLEYVSIINTYGNHWYANWASGRFTISRDNSKNTVYLQIDSLRAEDTATYYCARETHHGSSGIDHWGQGTLVTVSSASTKGPSVFPLAPSSKSTSGGTAALGCLVKDYFPEPVTVSWNSGALTSGVHTFPAVLQSSGLYSLSSVVTVPSSSLGTQTYICNVNHKPSNTKVDKKVEPKSCDKTHTCPPCPAPELLGGDSVFLFPPKPKDTLMISRTPEVTCVVVDVSHEDPEVKFNWYVDGVEVHNAKTKRREEQYNATYRVVSVLTVLHQDWLNGKEYKCKVSNKALPAPIEKTISKAKGQPREPQVYTLPPSREEMTKNQVSLTCLVKGFYPSDIAVEWESNGQPENNYKTTPPVLDSDGSFFLYSKLTVDKSRWQQGNVFSCSVMHEALHNHYTQKSLSLSP
light: DIQMTQSPSSVSASVGDRVTITCQASESIYSGLAWYQQKPGQPPKLLIYDHSTLASGVPSRFSGSGSGTEYALTISSLQPEDFATYYCQHADYAHHSDNVFGGGTKVEIKRTVAAPSVFIFPPSDEQLKSGTASVVCLLNNFYPREAKVQWKVDNALQSGNSQESVTEQDSKDSTYSLSSTLTLSKADYEKHKVYACEVTHQGLSSPVTKSFNRGEC
notes: copies: 2 + 2
relative binding (RU), P600=1.00: 0.47 fold

B2: Ab1H-P930/Ab1L (antibody, human IgG1, kappa, name in EU numbering)
heavy: B1 heavy with A289R, R293P
light: B1 light
notes: copies: 2 + 2
relative binding (RU), P600=1.00: -0.07 fold

B5: Ab1H-P935/Ab1L (antibody, human IgG1, kappa, name in EU numbering)
heavy: B1 heavy with G283R, R293P
light: B1 light
notes: copies: 2 + 2
relative binding (RU), P600=1.00: -0.06 fold

B6: Ab1H-P934/Ab1L (antibody, human IgG1, kappa, name in EU numbering)
heavy: B1 heavy with V284R, R293P
light: B1 light
notes: copies: 2 + 2
relative binding (RU), P600=1.00: 1.54 fold

B8: Ab1H-P932/Ab1L (antibody, human IgG1, kappa, name in EU numbering)
heavy: B1 heavy with H287R, R293P
light: B1 light
notes: copies: 2 + 2
relative binding (RU), P600=1.00: 1.38 fold

B11: Ab1H-P931/Ab1L (antibody, human IgG1, kappa, name in EU numbering)
heavy: B1 heavy with N288R, R293P
light: B1 light
notes: copies: 2 + 2
relative binding (RU), P600=1.00: 0.68 fold

More lines, now with the values ahead:

relative binding (RU), P600=1.00: -0.07 fold
B3: Ab1H-P939/Ab1L (antibody, human IgG1, kappa, name in EU numbering)
heavy: B1 heavy with D272R, R293P
light: B1 light
notes: copies: 2 + 2

relative binding (RU), P600=1.00: 0.47 fold
B4: Ab1H-P941/Ab1L (antibody, human IgG1, kappa, name in EU numbering)
heavy: B1 heavy with H270R, R293P
light: B1 light
notes: copies: 2 + 2

relative binding (RU), P600=1.00: 0.21 fold
B7: Ab1H-P937/Ab1L (antibody, human IgG1, kappa, name in EU numbering)
heavy: B1 heavy with E274R, R293P
light: B1 light
notes: copies: 2 + 2

relative binding (RU), P600=1.00: -0.06 fold
B9: Ab1H-P938/Ab1L (antibody, human IgG1, kappa, name in EU numbering)
heavy: B1 heavy with P273R, R293P
light: B1 light
notes: copies: 2 + 2

relative binding (RU), P600=1.00: -0.05 fold
B10: Ab1H-P940/Ab1L (antibody, human IgG1, kappa, name in EU numbering)
heavy: B1 heavy with E271R, R293P
light: B1 light
notes: copies: 2 + 2

From patent publication US20180258163A1 (Chugai, published 2018)
